Data as given in patent US20240026407A1, “MODIFICATION OF SAPONINS” (GLAXOSMITHKLINE BIOLOGICALS SA, priority 2020, published 2024).

Key:
Type in all cases: biochemical, Quillaja saponaria
[1] = Experiment 6-1: specificity of rhamnosidases towards other rhamnose residues (C3 saccharide rhamnose, C28 saccharide rhamnose); settings: TBE 2%, pH 7.5, 30 degC, 18 h; LCMS/MS; negative controls 0.18, 0.17
[2] = Experiment 6-1: screening of rhamnosidases for derhamnosylation of saponins in treated bark extract (2%), QS-17 2296 to QS-18 2150 (PAR %); settings: TBE 2%, pH 7.5, 30 degC, 18 h; TIC peak area ratio percent of rhamnosylated starting saponin to derhamnosylated product, LCMS/MS; negative controls 4.876, 5.225
[3] = Experiment 6-1: screening of rhamnosidases for derhamnosylation of saponins in treated bark extract (2%), desglucosyl-QS-17 2134 to QS-21 1988 (PAR %); settings: TBE 2%, pH 7.5, 30 degC, 18 h; TIC peak area ratio percent, LCMS/MS; negative controls 2.719, 2.158
[4] = Experiment 6-1: screening of rhamnosidases for derhamnosylation of saponins in treated bark extract (2%), QS-17 2310 to QS-18 2164 (PAR %); settings: TBE 2%, pH 7.5, 30 degC, 18 h; TIC peak area ratio percent, LCMS/MS; negative controls 3.061, 2.429

Molecule | ratio PP/QS-21 [1] | QS-17 (PAR %) [2] [%] | Peak75 (PAR %) [3] [%] | Peak57 (PAR %) [4] [%]
1072 (protein, listed as Kribbella flavida) MAEPVAPDGWTSGGPLAVAKLTAEYAEEPHGTDEVRPRLAWIATAPGYGATQSAYQVLVASQPELLSPEQADVWDSGQVGSDAVQVAYDGPALAARTRYHWAVRLWDGQGRAGRWSRPSWFETALLDEGFGAARWIGASTEAAPLLRRPFELTGPVRRARLYASGLAYAVLRVNGQQVGDAVLDPGFTNYDRTVLYVTHDVTELLQAGENVLGAELGRGFFGMTTPNVWRWHQAPWTGDPRLLARLVIDHEDGTTTELVSDGSWRVTSGPTVSDSLYAGERYDARLAQPGWDAPGFDDAAWSPAVELTAPQGTLRAQAHEPIRVVEEVAPVAISSPRAGVQVIDFGRTTAGWAKLRVEAPAGSRFTLVYGETLTADGQVEATNRHVDGDRFQQDEYVAAGHEIEQWEPRFSYKGFRYLQVTGDAEAEVVLKVVHSDVRAASRFDSDVEVYSWLEQAMRRTVLNNLHGIPTDTPIFEKNGWTGDAQVGAPTMASLVDLARFFTKWLDDLRDSQLPDGRLPVIVPSAGWGYAELAPATEWSTVYPFLLREMHRWYGDTRVLADHWDAVLRYLDWELERVEDGLSISVLGDWLPPGYPDGPPPEDSRLTATAYLHRAVTAVVEIGELIGETSELERLRKAAAELADGLNREFLDREAGLYRTAADPDYRQTSNAVPLAFGLVPEDQVPRVVANLVADVQARDFHLNTGCLGVGVLLPVLTQYGHADVAAKLAQQRTYPSWGYWLEEGADTLWEMWEADTRSRNHYFHGTVVQWLLESVAGLRNVGNGWQRIVVRPDARTGSTSAALRTDTVRGRVAASWRLVGRVLQLEVQVPVGCVAEVHVPSEAAADVTAVPSPYAGEPTRSDGYTVYTVPSGQWHFTSRTA | 0.17 | 5.457 | 2.462 | 3.245
1068 (protein, listed as Pedobacter heparinus) MINQIFKFSFFALNLLAWYSFTAKSQDLKVFDKATSWITCDKAQDQSNSWIAFRKVVQLDEKPVKALLDISVDSKYWLYINEKLVVFEGGLKRGPNPDDTYYDEADLTEYLKAGTNTIAVLLWYFGKNGFSHHSSGRAGMFFQLDMDKQGKICSDRSWKCSVVPAYLNVYSGDQPNYRLAESNVIYDARLALGDWTSASYNDKTWRNPFVVGPAGCMPWNKLVKRPIPQWKDYGIVNFNLNFPFNATGDTIKVKLPYNAQFTPYLKVEATAGKTIEMFTDNYSGGSENNVRAEYITKTGIQEYESFGWMNGHVMMFVIPKGAKVLSLGYRETGYHTTFAGSFNCNDAFYNKLWEKSSRTLYVNMRDSYMDCPDRERAQWWGDEVTEMTQSFYALDPDANLLAKKGIDELTGWQRSDGVLFSPIPAGNFDLELPVQMLTSVGYYGFWTYYYYTGDLETIRAAYPSIRKYLSLWEMDKNGLVISRTGGWNWGDWGKNVDIDLMSNAWYYLACKGYLEMSKTLNHAEEIKWAENQMSVMKKSFDTRFWTGKAYRSPDYKGQTDDRSNALAVLAGLTAPAKYPLLKDVFLTEEHSSPYMEKYVLEALFKMGYADIALERLKKRYTAMVDSELTTLWEGWKIGVNGYGGGSYNHAWSGGGLILLSRFVAGIEPASPGYETVKIAPQMGSLINCSATVSSVAGLIAVKNTFTNEKEFNQLIESPSPLKIYFPFEVYRIKKIRVNNKKLSEALMLKFKNEGKLELSKGKYKLTVNIN | 0.17 | 5.521 | 2.370 | 3.156
999 (protein, listed as Prevotella ruminicola) MRKFLTIICVACCYASATFAQAWPQPKPEAKPGTRWWWLGSAVNQRDLQWNLQEYARAGIGAVEITPIYGVKGNDANNIAYLSPQWMQALQSVQDIARPLGIEVDMNCGTGWPFGGPHISLDQAACRAIIKDTIINGKHQYEVEIGHTKQKVKRAAPGGEGWVVDHFDRNAVAHYLDRFEQAFATSGVPYPHTFFNDSYEVYKADWTPTLFDEFQKRRGYDLRTKLPELLGKVDDGNQTLADYRETLSDMLLENFTQQWVAWAHKHGVKVRNQAHGSPANLLDLYAAVDIPEIEGFGLSEFGIKGLRTDPGKTRKNDSDVSMLKYASSAAHVMGKPFTSSETFTWLTEHFRTSLSQMKPDLDLMFTCGVNHVYFHGSCYTPQNAAWPGWKFYASVDMSPTNSIWRDAPFLMKYIERSQSFLQLGEPDNDFLVYLPVRDMWHQRDNNNTLLMQFDIHSMAKKAPQFIRSILTIDSLGYDCDYISDRQLAKVRMQDGMLVTEGGTRYKALIIPSGTTIDASLQAQINRLNAYVIRGEQAADMAKFAKAEQMKTTYGLRAIRRHTADGWHYFIVNLTPKDITGDVTLAVPFESATWFNPMNGDIQPAEVHNGQLHIALKSGESRILQTSNQPSTNITTTASGTEEITLQGPWVLSFTDESPRVEGTFKLNKLQTWETLSDSAAVTMGTGVYTTSIKLSAQQAKQHWQIDLGDVRESARVYINSQFVGCAWAVPFILDCGNTLHKGKNEIRIEVTNLPANRIAELDRKGVQWRKFNEINVVDINYKNTTYADWKPVPSGLNTTVKLVR | 0.16 | 5.614 | 2.571 | 2.714
1025 (protein, listed as Bacteroides xylanisolvens) MKKDYMKYQQNSKREEKSKFITNQLTNMAHISIRSYLYLLGTTLFSCAPQELKTPFELKCENIPVPVGVDTQTPRLSWKLPLLEEDSINRVEIWLSTDSTQLSGRQSGYWNKSIIGAPIRVSYDGQPLDSYTTYYWKIGYQTSSKQKTTFSPISSFTTGCLSPDNWKGKWITDKHDITYRPAPYYRKSFQLDKTIEQALLTIASAGLHELSVNGQRAGNHFLDPMYTHFDKRILSVTHDVTSLLSLGENVIGVQLGNGWYNHQSTAVWFFDKASWRNRPKFTAQLHLRYTDGTTEYLGTDSTWQTTDSPVIFNSIYTAEHYDAQKELAGWDSPGFNATGWYHAQETESPTETIKSQVMHPIRETARYTATQCKKINDSCYVYHFPKNIAGVTELKVKGKKGTKLRLKHGELLDKNGMVNMANIDYHYRPTDDSDPFQTDIVILSGKQDRFMPKFNYKGFQFVEVSSSAPIQLSDENLIAVEMHSDIPAIGYWSSSSDLLNKIWKATNSSYLANLFGYPTDCPQREKNGWTGDAHITIETGLYNFDGISIYEKWMNDFCDEQKDNGILPCIIPTSVWGYDWANGVDWTSAVAIIPWEIYRFYGDTTLLRRMYGPIKKYVSYIESISTNHLTDWGLGDWVPVRSKSNITLTSSIYYYTDVCILAKAARLFGYAEDASYYNTLAQKIKEAINTSFLNKETGIYAEGTQTELAMPLYWGIVPEEDKKKVAARLHELVEKDDYHLDVGLLGSKALLSAMSDNGYAETAYKVASQDTYPSWGVLDQTRCYNST | 0.18 | 5.495 | 2.330 | 2.933
1021 (protein, listed as Paenibacillus sp.) MLQPYAPAIKNYYSAIGIDTPKPIFVWKLSSPLRNQKQTHYRITVAENAESLEEENNLLWDSGKVASDEQLGVMYKGSPLESTSRYCWRVAIWDSSGQSLWSEVQYFITGYLNSEHWSAKWIGDGSDAPFYARYEFDLNKKVKQAFALVSGLGQFKFYMNGRQVGDHEMDPGWTNYHKSVQYVGFDITDHLQSGKNAVGLHVGNGFFAGASGGRHFYTMDKGYEPYGDQLVAIGEWHIEFEDGSRIILRTGEEGWKVHESATTLANVYGSENFDARLYPDGYHVPGFDDSGWKPAQLLKPPAGNLVQQNQPPVKVKQVYDTLSVAEPLPGVYVFDLGQNMAGMFEIYASGPAGSKVIIKPGELMREDGTIATPWDIVTYSEFILAGTGEVEVWKPDFSYYGARWVQIEGCTRDEADTGRPMIHDVKGHFITSASQDTGTLSTDDVRIDKLADIITKAIESNLQSVHTDCPTIEKLGWLEASALMGPSIVYVKQAEELFLKIVRDMMEAQTEEGLIPDIAPEYSLFPDGFRDSIAWGIALLMVPDLLLERYNNFTAIEVAYPAMKRYMDYLKSKEIHDGLIGHGLGDWGIQPQTGGDYIENVETAFYYEGYRLMAKFAGILGFTDELEDYSAEAERIKLNYNKQLLHSLPENSPRYAYCKLGGQFDPANQVVQAIPLAFNLVPEEQLHNVEHALLQAVASRQFHSGEIGLRYLFLALSRLNRNDIVLDMMMQPEHPSYIRFVERGETSLPEFWTDEARSRNHDMMGHILEWLYKELLGISSASGAYKEILIAPFRSGRVKRVKGVHHSIRGEIGVEFSHSAEEIILNVQIPANTTATLQIPLLHGESQLYERGTRVLYEPFNQGAQIYARLKIGSGSYSYVNRV | 0.16 | 5.476 | 2.296 | 3.148
